# Reference: patent US20140271457A1 (AbbVie / Abbott, published 2014)
# Assays:
# [1] = target: Recombinant Human β-NGF (human, UniProt P01138 122-241); test: cell-based or functional assay
# [2] = target: Recombinant Human TNF-α/TNFSF1A (human, UniProt P01375 77-233); test: cell-based or functional assay
# Recombinant Human TNF-α/TNFSF1A, sequence (P01375 77-233 limits assumed): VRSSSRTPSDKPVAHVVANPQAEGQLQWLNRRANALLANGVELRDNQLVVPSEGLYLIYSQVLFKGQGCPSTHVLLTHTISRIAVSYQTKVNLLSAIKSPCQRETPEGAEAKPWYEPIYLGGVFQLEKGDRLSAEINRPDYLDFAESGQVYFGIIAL
# Recombinant Human β-NGF, sequence (P01138 122-241 limits assumed): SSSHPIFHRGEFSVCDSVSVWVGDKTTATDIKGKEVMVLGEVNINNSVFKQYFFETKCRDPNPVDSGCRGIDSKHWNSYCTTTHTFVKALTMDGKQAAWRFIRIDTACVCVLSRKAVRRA
Binder,N-Terminal VD NGF Neutralization Assay IC50 [1] [nM],C-Terminal VD huTNFα Neutralization Assay IC50 [2] [nM],C-Terminal VD NGF Neutralization Assay IC50 [1] [nM],N-Terminal VD huTNFα Neutralization Assay IC50 [2] [nM]
"DVD2772 (bispecific antibody, IgG1) VH: EVQLVESGGGLVQPGGSLRLSCAASGFSLTNNNVNWVRQAPGKGLEWVGGVWAGGATDYNSALKSRFTISRDNSKNTAYLQMNSLRAEDTAVYYCARDGGYSSSTLYAMDAWGQGTLVTVSSASTKGPSVFPLAPEVQLVESGGGLVQPGGSLRLSCAASGFTFSNYGVEWVRQAPGKGLEWVSGIWADGSTHYADTVKSRFTISRDNSKNTLYLQMNSLRAEDTAVYYCAREWQHGPVAYWGQGTLVTVSS VL: DIQMTQSPSSLSASVGDRVTITCRASEDIYNALAWYQQKPGKAPKLLIYNTDTLHTGVPSRFSGSGSGTDYTLTISSLQPEDFATYFCQHYFHYPRTFGQGTKVEIKRTVAAPDIQMTQSPSSLSASVGDRVTITCKASQLVSSAVAWYQQKPGKAPKLLIYWASTLHTGVPSRFSGSGSGTDFTLTISSLQPEDFATYYCQQHYRTPFTFGQGTKLEIKR",0.04,0.128,,
"DVD2814 (bispecific antibody, IgG1) VH: EVQLVQSGAEVKKPGASVKVSCKASGYTFANYGIIWVRQAPGQGLEWMGWINTYTGKPTYAQKFQGRVTMTTDTSTSTAYMELSSLRSEDTAVYYCARKLFTTMDVTDNAMDYWGQGTTVTVSSASTKGPEVQLVESGGGLVQPGGSLRLSCAASGFSLTNNNVNWVRQAPGKGLEWVGGVWAGGATDYNSALKSRFTISRDNSKNTAYLQMNSLRAEDTAVYYCARDGGYSSSTLYAMDAWGQGTLVTVSS VL: DIQMTQSPSSLSASVGDRVTITCRASQDISQYLNWYQQKPGKAPKLLIYYTSRLQSGVPSRFSGSGSGTDFTLTISSLQPEDFATYFCQQGNTWPPTFGQGTKLEIKRTVAAPDIQMTQSPSSLSASVGDRVTITCRASEDIYNALAWYQQKPGKAPKLLIYNTDTLHTGVPSRFSGSGSGTDYTLTISSLQPEDFATYFCQHYFHYPRTFGQGTKVEIKR",,,0.019,0.012
"DVD2816 (bispecific antibody, IgG1) VH: EVQLVQSGAEVKKPGASVKVSCKASGYTFANYGIIWVRQAPGQGLEWMGWINTYTGKPTYAQKFQGRVTMTTDTSTSTAYMELSSLRSEDTAVYYCARKLFTTMDVTDNAMDYWGQGTTVTVSSASTKGPEVQLVESGGGLVQPGGSLRLSCAASGFSLTNNNVNWVRQAPGKGLEWVGGVWAGGATDYNSALKSRFTISRDNSKNTAYLQMNSLRAEDTAVYYCARDGGYSSSTLYAMDAWGQGTLVTVSS VL: DIQMTQSPSSLSASVGDRVTITCRASQDISQYLNWYQQKPGKAPKLLIYYTSRLQSGVPSRFSGSGSGTDFTLTISSLQPEDFATYFCQQGNTWPPTFGQGTKLEIKRTVAAPSVFIFPPDIQMTQSPSSLSASVGDRVTITCRASEDIYNALAWYQQKPGKAPKLLIYNTDTLHTGVPSRFSGSGSGTDYTLTISSLQPEDFATYFCQHYFHYPRTFGQGTKVEIKR",,,2.89,0.009
"DVD2817 (bispecific antibody, IgG1) VH: EVQLVQSGAEVKKPGASVKVSCKASGYTFANYGIIWVRQAPGQGLEWMGWINTYTGKPTYAQKFQGRVTMTTDTSTSTAYMELSSLRSEDTAVYYCARKLFTTMDVTDNAMDYWGQGTTVTVSSASTKGPSVFPLAPEVQLVESGGGLVQPGGSLRLSCAASGFSLTNNNVNWVRQAPGKGLEWVGGVWAGGATDYNSALKSRFTISRDNSKNTAYLQMNSLRAEDTAVYYCARDGGYSSSTLYAMDAWGQGTLVTVSS VL: DIQMTQSPSSLSASVGDRVTITCRASQDISQYLNWYQQKPGKAPKLLIYYTSRLQSGVPSRFSGSGSGTDFTLTISSLQPEDFATYFCQQGNTWPPTFGQGTKLEIKRTVAAPDIQMTQSPSSLSASVGDRVTITCRASEDIYNALAWYQQKPGKAPKLLIYNTDTLHTGVPSRFSGSGSGTDYTLTISSLQPEDFATYFCQHYFHYPRTFGQGTKVEIKR",,,1.27,0.013
"DVD3039 (bispecific antibody, IgG1) VH: EVQLVQSGAEVKKPGASVKVSCKASGYTFNNYGIIWVRQAPGQGLEWMGWINTYTGKPTYAQKFQGRVTMTTDTSTSTAYMELSSLRSEDTAVYYCARKLFNTVAVTDNAMDYWGQGTTVTVSSASTKGPEVQLVESGGGLVQPGGSLRLSCAASGFSLTNNNVNWVRQAPGKGLEWVGGVWAGGATDYNSALKSRFTISRDNSKNTAYLQMNSLRAEDTAVYYCARDGGYSSSTLYAMDAWGQGTLVTVSS VL: DIQMTQSPSSLSASVGDRVTITCRASQDIENYLNWYQQKPGKAPKLLIYYTSRLQSGVPSRFSGSGSGTDFTLTISSLQPEDFATYFCQQGNTQPPTFGQGTKLEIKRTVAAPDIQMTQSPSSLSASVGDRVTITCRASEDIYNALAWYQQKPGKAPKLLIYNTDTLHTGVPSRFSGSGSGTDYTLTISSLQPEDFATYFCQHYFHYPRTFGQGTKVEIKR",,,0.088,0.012
"DVD2818 (bispecific antibody, IgG1) VH: EVQLVESGGGLVQPGGSLRLSCAASGFSLTNNNVNWVRQAPGKGLEWVGGVWAGGATDYNSALKSRFTISRDNSKNTAYLQMNSLRAEDTAVYYCARDGGYSSSTLYAMDAWGQGTLVTVSSGGGGSGGGGSEVQLVQSGAEVKKPGASVKVSCKASGYTFANYGIIWVRQAPGQGLEWMGWINTYTGKPTYAQKFQGRVTMTTDTSTSTAYMELSSLRSEDTAVYYCARKLFTTMDVTDNAMDYWGQGTTVTVSS VL: DIQMTQSPSSLSASVGDRVTITCRASEDIYNALAWYQQKPGKAPKLLIYNTDTLHTGVPSRFSGSGSGTDYTLTISSLQPEDFATYFCQHYFHYPRTFGQGTKVEIKRGGSGGGGSGDIQMTQSPSSLSASVGDRVTITCRASQDISQYLNWYQQKPGKAPKLLIYYTSRLQSGVPSRFSGSGSGTDFTLTISSLQPEDFATYFCQQGNTWPPTFGQGTKLEIKR",0.003,0.072,,
"DVD2819 (bispecific antibody, IgG1) VH: EVQLVESGGGLVQPGGSLRLSCAASGFSLTNNNVNWVRQAPGKGLEWVGGVWAGGATDYNSALKSRFTISRDNSKNTAYLQMNSLRAEDTAVYYCARDGGYSSSTLYAMDAWGQGTLVTVSSASTKGPEVQLVQSGAEVKKPGASVKVSCKASGYTFANYGIIWVRQAPGQGLEWMGWINTYTGKPTYAQKFQGRVTMTTDTSTSTAYMELSSLRSEDTAVYYCARKLFTTMDVTDNAMDYWGQGTTVTVSS VL: DIQMTQSPSSLSASVGDRVTITCRASEDIYNALAWYQQKPGKAPKLLIYNTDTLHTGVPSRFSGSGSGTDYTLTISSLQPEDFATYFCQHYFHYPRTFGQGTKVEIKRTVAAPDIQMTQSPSSLSASVGDRVTITCRASQDISQYLNWYQQKPGKAPKLLIYYTSRLQSGVPSRFSGSGSGTDFTLTISSLQPEDFATYFCQQGNTWPPTFGQGTKLEIKR",0.006,0.279,,
"DVD2822 (bispecific antibody, IgG1) VH: EVQLVESGGGLVQPGGSLRLSCAASGFSLTNNNVNWVRQAPGKGLEWVGGVWAGGATDYNSALKSRFTISRDNSKNTAYLQMNSLRAEDTAVYYCARDGGYSSSTLYAMDAWGQGTLVTVSSASTKGPSVFPLAPEVQLVQSGAEVKKPGASVKVSCKASGYTFANYGIIWVRQAPGQGLEWMGWINTYTGKPTYAQKFQGRVTMTTDTSTSTAYMELSSLRSEDTAVYYCARKLFTTMDVTDNAMDYWGQGTTVTVSS VL: DIQMTQSPSSLSASVGDRVTITCRASEDIYNALAWYQQKPGKAPKLLIYNTDTLHTGVPSRFSGSGSGTDYTLTISSLQPEDFATYFCQHYFHYPRTFGQGTKVEIKRTVAAPDIQMTQSPSSLSASVGDRVTITCRASQDISQYLNWYQQKPGKAPKLLIYYTSRLQSGVPSRFSGSGSGTDFTLTISSLQPEDFATYFCQQGNTWPPTFGQGTKLEIKR",0.003,0.107,,
"DVD2821 (bispecific antibody, IgG1) VH: EVQLVESGGGLVQPGGSLRLSCAASGFSLTNNNVNWVRQAPGKGLEWVGGVWAGGATDYNSALKSRFTISRDNSKNTAYLQMNSLRAEDTAVYYCARDGGYSSSTLYAMDAWGQGTLVTVSSASTKGPEVQLVQSGAEVKKPGASVKVSCKASGYTFANYGIIWVRQAPGQGLEWMGWINTYTGKPTYAQKFQGRVTMTTDTSTSTAYMELSSLRSEDTAVYYCARKLFTTMDVTDNAMDYWGQGTTVTVSS VL: DIQMTQSPSSLSASVGDRVTITCRASEDIYNALAWYQQKPGKAPKLLIYNTDTLHTGVPSRFSGSGSGTDYTLTISSLQPEDFATYFCQHYFHYPRTFGQGTKVEIKRTVAAPSVFIFPPDIQMTQSPSSLSASVGDRVTITCRASQDISQYLNWYQQKPGKAPKLLIYYTSRLQSGVPSRFSGSGSGTDFTLTISSLQPEDFATYFCQQGNTWPPTFGQGTKLEIKR",0.011,0.09,,
"DVD2813 (bispecific antibody, IgG1) VH: EVQLVQSGAEVKKPGASVKVSCKASGYTFANYGIIWVRQAPGQGLEWMGWINTYTGKPTYAQKFQGRVTMTTDTSTSTAYMELSSLRSEDTAVYYCARKLFTTMDVTDNAMDYWGQGTTVTVSSGGGGSGGGGSEVQLVESGGGLVQPGGSLRLSCAASGFSLTNNNVNWVRQAPGKGLEWVGGVWAGGATDYNSALKSRFTISRDNSKNTAYLQMNSLRAEDTAVYYCARDGGYSSSTLYAMDAWGQGTLVTVSS VL: DIQMTQSPSSLSASVGDRVTITCRASQDISQYLNWYQQKPGKAPKLLIYYTSRLQSGVPSRFSGSGSGTDFTLTISSLQPEDFATYFCQQGNTWPPTFGQGTKLEIKRGGSGGGGSGDIQMTQSPSSLSASVGDRVTITCRASEDIYNALAWYQQKPGKAPKLLIYNTDTLHTGVPSRFSGSGSGTDYTLTISSLQPEDFATYFCQHYFHYPRTFGQGTKVEIKR",,,7.46,0.016
"DVD3038 (bispecific antibody, IgG1) VH: EVQLVQSGAEVKKPGASVKVSCKASGYTFNNYGIIWVRQAPGQGLEWMGWINTYTGKPTYAQKFQGRVTMTTDTSTSTAYMELSSLRSEDTAVYYCARKLFNTVAVTDNAMDYWGQGTTVTVSSGGGGSGGGGSEVQLVESGGGLVQPGGSLRLSCAASGFSLTNNNVNWVRQAPGKGLEWVGGVWAGGATDYNSALKSRFTISRDNSKNTAYLQMNSLRAEDTAVYYCARDGGYSSSTLYAMDAWGQGTLVTVSS VL: DIQMTQSPSSLSASVGDRVTITCRASQDIENYLNWYQQKPGKAPKLLIYYTSRLQSGVPSRFSGSGSGTDFTLTISSLQPEDFATYFCQQGNTQPPTFGQGTKLEIKRGGSGGGGSGDIQMTQSPSSLSASVGDRVTITCRASEDIYNALAWYQQKPGKAPKLLIYNTDTLHTGVPSRFSGSGSGTDYTLTISSLQPEDFATYFCQHYFHYPRTFGQGTKVEIKR",,,0.093,0.002
